Reference: the supplement of paper PMC9170038

Tests used:
MS2 coat protein [1] = test: apparent KD of MS2 coat protein, switch OFF state (with FMN for OFF switches, without FMN for ON switches); designed switch direction (-1 OFF switch, 1 ON switch): 1; higher = weaker reporter binding; settings: FMN input: 0 or 200 uM; Eterna round: R93 (includes R88 designs)
How it was run: (§1)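 Designed RNA switches were made by on-chip transcription from Illumina sequencing clusters and then titrated with SNAP-549-labelled MS2 coat protein. Twofold steps ran from 0.7 or 1.5 nM to 3 µM, each lasting 0.8–1.5 h early and 10–20 min late, in 100 mM Tris-HCl pH 7.5, 80 mM KCl, 4 mM MgCl2, without or with constant ligand. Apparent KD is the per-design median of normalised cluster binding-curve fits.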

MS2 coat protein [2] = test: apparent KD of MS2 coat protein, switch ON state; designed switch direction (-1 OFF switch, 1 ON switch): 1; higher = weaker reporter binding; settings: FMN input: 0 or 200 uM; Eterna round: R93 (includes R88 designs)
How it was run: as §1

Row | Sequence | apparent KD of MS2 coat protein (MS2 coat protein [1]) | apparent KD of MS2 coat protein (MS2 coat protein [2])
1 | CUGGACCUAGGAUAGGAUAUGUGAAUAAUUACAUGAGGAUCACCCAUGUCCAUUUAUAUGGGAACAUAGAAGGGUUUUGGUUAAG [Mat - Same state - Malcolm Mod - D147] | 164 nM | 103 nM
2 | AGAAAUAAAAGAGAGGAUAUCCAAAAGAAAACAUGAGGAUCACCCAUGUGAAACAAAACAAAAUGGGAGAAGGCUCAAAAUAAGA [Topaz 16] | 137 nM | 31 nM
3 | GAGAUACAUGAGGAUCACCCAUGUUGAAACAUGGGAGGAUAUACAAGGUCGAAAGAUAAGGUAGAAGGCCUAAAAG [LROPPY Same State 1 - v04_deltaG=3.] | 20.3 nM | 37.6 nM
4 | CGGCAAGAGAGAGAGGAUAUCCAAAGGAAAACAUGAGGAUCACCCAUGUAGAAGGUAGGAAAUUGGGAGAAGGCUCAAGAGAGAG [salish99-ss2-135] | 18.4 nM | 23.2 nM
5 | CCGAGGAAGAGAGAGGAUAUCCAAAGGAAAACAUGAGGAUCACCCAUGUAAAAGGUAGGAAAUUGGGAGAAGGCUCAAGAGAGAG [salish99-ss2-072] | 47.1 nM | 38.7 nM
6 | AAUAUAUUAAGUGAGGAUAUCAUAGGAAAAACAUGAGGAUCACCCAUGUGGGAAACCUGGUCGGGUGAGAAGGCACUUAAUAUAU [Samwise Clockwise 30 - Jieux - Same State 2] | 217 nM | 37.5 nM
7 | AACAAUCUAUCUGAGGAUAUGUGUCGAAAGACAUGAGGAUCACCCAUGUAAAAACAUGAAAAAACACAGAAGGCAGAUAGAUUGA [SS2: 1146] | 81.5 nM | 62.6 nM
8 | CGGAAAGAGAGAGAGGAUAUCCAAAGGAAAACAUGAGGAUCACCCAUGUAGAAGGUAGGAAAUUGGGAGAAGGCUCAAGAGAGAG [salish99-ss2-132] | 26.7 nM | 25.3 nM
9 | AAAAAAGAUCGCGAGGAUAUCCGAGUGGUAACAUGAGGAUCACCCAUGUGAAGAAAGGAACAUGAGGAGAAGGCGCGAUCAAAAA [viburnum 5] | 18.7 nM | 10.9 nM
10 | GAAAAACAUGAGGAUCACCCAUGUAGAAAUAUGGGAGGAUAUACAAAGACGAAAGUCAAAGUAGAAGGCCUGAGAA [Mat - Same State 1 - Eli mod - 83] | 103 nM | 21 nM
11 | AAAAGACAUGAGGAUCACCCAUGUCGAAAGACAUGAGGAUAUGUACAGACUUCGGUCUGUACAGAAGGCAUAAAAA [SS1 - 1061] | 89.5 nM | 27 nM
12 | UUUCAUUACACGAAGGAUAUCGCUUUUCAGACAUGAGGAUCACCCAUGUAGUAGAUUUCCCUGUUCGAGAAGGUCGCGGGUGAAC [JR_SS002_Sub603] | 70.4 nM | 51.5 nM
13 | AAUACACAUAGUCAGGAUAUCAAAAAUAAGACAUGAGGAUCACCCAUGUAAUAAGUAAAAGUAAAUGAGAAGGGACAGGGUGAAA [JR_SS002_Sub402] | 79.3 nM | 33 nM
14 | AAAUAAAGGACUGAGGAUAUACCACAUGAAACAUGAGGAUCACCCAUGUAGAAAUACAAAGGGUGGUAGAAGGUAGUCCACAAAC [Same State 2.5 so lets mod hyphema)] | 68.9 nM | 45.9 nM
15 | AGAAAUAAAAGAGAGGAUAUCCAAAAUAAAACAUGAGGAUCACCCAUGUCUACGAAAGUAGGAUGGGAGAAGGCUCAAAAUAAAG [80% More Helter Skelter 2 + Hairpin] | 14.8 nM | 120 nM
16 | AAACAGAUAGGACAGGAUAUGUCGUGAUAAACAUGAGGAUCACCCAUGUGAGACAUCACGUAAUCGCAGAAGGGUCCUGUCUUAC [Aquditiri] | 15.6 nM | 16.3 nM
17 | GAAAAACAUGAGGAUCACCCAUGUAGAAAUAUGGGAGGAUAUACAAGGACGAAAGUCAAGGUAGAAGGCCUAAAAG [Mat - Same State 1 - Eli mod - 26] | 98.6 nM | 33.8 nM
18 | AUACAAACGUAUGAGGAUAUCCUUAAUAAAACAUGAGGAUCACCCAUGUGAAUAAAAUAACAAUUGGAGAAGGCAUACGUACAAU [Mat - Same state - Malcolm Mod - D137] | 18.9 nM | 16.6 nM
19 | AAAAUAUAAACAGAGGAUAUCCAAAGAACCACAUGAGGAUCACCCAUGUAAAGAAAGAAUAAGUGGGAGAAGGUUGAAAUAAUAA [Designing denovo 26] | 74.9 nM | 49.9 nM
20 | AAAAAACAUGAGGAUCACCCAUGUGCAAAAUUCGCAGGAUAUUCCUCAAUUAAAUGAGAGGAAGAAGGGUGACAAA [Nob's Hobby 29 - Jieux - Same State 1] | 500 nM | 112 nM
21 | CAUAGACAUGAGGAUCACCCAUGUAGAAUUAUGGGAGGAUAUACAAAGACGAGAGUCAGAGUAGAAGGCCUAGGAC [salish99-ss1-164] | 28.3 nM | 18.9 nM
22 | AGGAAACAUGAGGAUCACCCAUGUAUAAAAAUGGGAGGAUAUACUAAGACGAAAGUCAUAGUAGAAGGCCUAAAAA [76%, Meechl, 8] | 52.6 nM | 24.3 nM

Row | Sequence | apparent KD of MS2 coat protein (MS2 coat protein [1]) | apparent KD of MS2 coat protein (MS2 coat protein [2])
23 | AAAAAACAUGAGGAUCACCCAUGUCCUCGGACGUGAGGAUAUGUACAGACUUCGGUCUGUACAGAAGGCAUGUAAA [SS1 - 1051] | 379 nM | 555 nM
24 | UGGAGGAAGAGAGAGGAUAUCCAAAGGAAAACAUGAGGAUCACCCAUGUAAAAGGUAGGAAAUUGGGAGAAGGCUCAAGAGAGAG [salish99-ss2-059] | 63.7 nM | 37.2 nM
25 | AGAAAUAAAAGCUAGGAUAUCCAAAAGAAAACAUGAGGAUCACCCAUGUAAAAGAAAAUAAAGUGGGAGAAGGAGCAAAAUAAGA [Starry modified] | 35.6 nM | 18 nM
26 | AUAACACAUGAGGAUCACCCAUGUAGAUACCCGUCAGGAUAUGCAAAGAAAAUAAACAAAGCAGAAGGGACAAUAA [SS 1 Tesla 2] | 30.4 nM | 21.2 nM
27 | GGGAGACAUGAGGAUCACCCAUGUGAGAAGAGGCGAGGAUAUCGAAAAAAAAAAAAAAAACGAGAAGGCGCGAGAC [salish99-SS1-006] | 94.5 nM | 33.6 nM
28 | AAAAAAAGAUCACAGGAUAUACGAAAAAAAACAUGAGGAUCACCCAUGUAAAAAAAAAAAAAAAAGUAGAAGGGUGAUCCAAAAAA | 11 nM | 28.5 nM
29 | AAAAGACAUGAGGAUCACCCAUGUAGGCCAAAGCAAGGAUAUAGGCCACAGGGACGUGAACUAGAAGGUGCACGGC [Zainlebe] | 135 nM | 30.8 nM
30 | AAAAUACAUGAGGAUCACCCAUGUGAAAAUAUGGGAGGAUAUACGAAAAAUAAAUAAAACGUAGAAGGCCUAAAAA [SS! 1 MT 2] | 165 nM | 22.2 nM
31 | GAAGACAUAGUUCAGGAUAUAGGAAUAGUCACAUGAGGAUCACCCAUGUGCAUUUAUAUGCGCACUUAGAAGGGAGGUAGUUAAU [Mat - Same state - Malcolm Mod - D120] | 26.8 nM | 28.4 nM
32 | AAGAAACAUGAGGAUCACCCAUGUACCCAAAAGGGAGGAUAUCCGAAAGAAAGAAAGAAAGGAGAAGGCCCAUGAA [Xerxes II] | 34.2 nM | 12.6 nM
33 | ACUAUACAUGAGGAUCACCCAUGUCAGGUGGGACUAGGAUAUCAUAAGCCAGAGUAAGAAUGAGAAGGAGUAGAAA [JR_SS001_Sub306] | 151 nM | 143 nM
34 | GAAAAACAUGAGGAUCACCCAUGUGGAAAUAUGGGAGGAUAUACGAAGACGAAAGUCAAAGUAGAAGGCCUAAAAG [Same State 1.4c (Mat - Mod of Eli - )] | 83.8 nM | 22 nM
35 | GACCGGGACGCGUAGGAUAUGUAGUGCGCUACAUGAGGAUCACCCAUGUGCGAGACUUCAAAAGAGCAGAAGGGUGUGUGCCCGG [Xegeedri] | 65.8 nM | 40.2 nM
36 | GGGAGGAAGAGAGAGGAUAUCCAAAGGAAAACAUGAGGAUCACCCAUGUAAAAGGUAGGAAAUUGGGAGAAGGCUCAAGAGAUGG [salish99-ss2-052] | 39.2 nM | 59 nM
37 | GUGGUGUAGGUACAGGAUAUGUUGCUCGUAACAUGAGGAUCACCCAUGUACCUAUGAGAUUAAAUGCAGAAGGGUGCACACCACG [Alage] | 118 nM | 37.3 nM
38 | AAAACCUGCGUCGAGGAUAUGUAGCCCACUACAUGAGGAUCACCCAUGUGGAUCUUACUGGGUCGACAGAAGGUGAAAGUAAGGC [Ustionon] | 39.4 nM | 49.3 nM
39 | AGAAUAAAAAGACAGGAUAUCCAAAAGAAAACAUGAGGAUCACCCAUGUAAAAAAAAAUAAAAUGGGAGAAGGGUCAAAAUAAAG [Mat - Same State 2 - JL mod - D69] | 44 nM | 18 nM
40 | AGAAAUAAAAGGCAGGAUAUCCAAAAGAAAACAUGAGGAUCACCCAUGUAAAAGAAAAUAAAAUGGGAGAAGGGCCAAAAUAAAG [Fisker 73] | 42.3 nM | 13.1 nM
41 | AACAAUCUAUCUGAGGAUAUGUGUCGAAAGACAUGAGGAUCACCCAUGUGAAAACAUGAAAAAACACAGAAGGCAGAUAGAUUGA [SS2: 1147] | 70.6 nM | 33.6 nM
42 | AGUAAACAUGAGGAUCACCCAUGUGGUGGCCCAUGAGGAUAUCCAUGCGCAAUGCGCAUAGGAGAAGGCAUAGCCA [Enenerla] | 52.6 nM | 125 nM
43 | AGAAAUAAAAGAGAGGAUAUCCAAAAUAAAACAUGAGGAUCACCCAUGUGAAACAAAACAAAAUGGGAGAAGGCUCAAAAUAAGA [Topaz 17] | 33.9 nM | 15.7 nM
